Data on 41 sequences can be found in the nanobody polyreactivity screen of Harvey et al. (2022).

A short description of this series: yeast display, Sf9 membrane polyspecificity reagent, FACS + sequencing; frameworks hold sequencing errors. The method in brief:
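Synthetic nanobody libraries on Saccharomyces cerevisiae BJ5465 were galactose-induced for 36–48 hours, stained 1 hour at 4 °C with 10% biotinylated, detergent-solubilized Sf9 membrane reagent and enriched on streptavidin microbeads. FACS then separated cells into low and high (top ~1%) gates by anti-HA (expression) and streptavidin (reagent binding) fluorescence. Genes were colony-PCR amplified, MiSeq 2 × 250 sequenced and CDR-length filtered. A clone's polyreactivity label is that of its gate of origin.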
Turning to “QVQLVESGGGLVQAGGSLRLSCAASGITFNTYTMVWYTQAPGKERELVAAISGSSGRTYYADSVKGRFTISRDNAKNTVYLQMNSLNPEDTAVYYCAAYAVESYKYDYWGHGTQVTVSS”, the “polyreactivity (PSR sort gate)” value was “high polyreactivity”.
Under “QVQLVESGGGLVQAGGSLRLSCAASGITFNVLAMGWYRQAPGKEREFVAAISTRDGTTYADSLKGRFTISRDNAKNTVYLQMNSLKPEDTAVYYCAAAYYYDGQQGDFDYWGQGTQVTVSS” stands “low polyreactivity”; under “QVQLVESGGGLVQAGGSLRLSCAASGITFNVNAMGWYRQAPGKERELVARITTSGGSTSYADSVKGRFTISRDNAKNTVYLQMNSLKPEDTAVYYFAADRARYYSEYDYWGQGTQVTVSS”, “low polyreactivity”.
Under “QVQLVESGGGLVQAGGSLRLSCAASGITFNYNAMGWYRQAPGKERELVARITWSGTRTYYADSVKGRYTISRDNAKNTVYLQMNSLKPEDTAVYYCNADPYARYYWGQGTQVTVSS” stands “high polyreactivity”; under “QVQLVESGGGLVQAGGSLRLSCAASGITFPDYAMGWYRQAPGKERELVAAISRGVNTYYADSVKGRFTISRDNAKNTVYLQMNSLKPEDTAVYYCNRRGSSGYDYWGQGSQVTVSS”, “low polyreactivity”.
Under “QVQLVESGGGLVQAGGSLRLSCAASGITFPGNAMGWYRQAPGKERELVAGISDGDSTNYADSVKGRFTISRDNAKNTVYLQMNSLKPEDTAVYYCNAQGTTETSGGGFFRGMDYWGQGTQVTVSS” stands “low polyreactivity”; under “QVQLVESGGGLVQAGGSLRLSCAASGITFPGYAMGWYRQATGKERELVAVIRKSGTSTYYADSVKGRFTISRDTAKNTVYLQMNSLKPEDTAVYYCAAGGPSTLDDYWGQGTQVTVSS”, “low polyreactivity”.
On to “QVQLVESGGGLVQAGGSLRLSCAASGITFPINAMGWSRQAPGKEREFVATISFSGASTYYADSVKGRFTISRDNAKNTVYLQMNSLKPEDTAVYYCAADLSLSTGGRAFPTYGYWGQGTQVTVSS”, for which the “polyreactivity (PSR sort gate)” value is “high polyreactivity”.
For the sequence “QVQLVESGGGLVQAGGSLRLSCAASGITFPLYAMGWYRQAPGKERELVATISGRGGSTYYADSVKGRFTISRDNAKNTVYLQMNSLKPEDTAVYYCNADFRSPYFLLSWYHSGDYWGQGTQVTGSS”, the “polyreactivity (PSR sort gate)” value is recorded as “low polyreactivity”.
Regarding “QVQLVESGGGLVQAGGSLRLSCAASGITFPLYVMGWSRQAPGKERELVAAISASGGSTYADSVKGRFTISRDNAKNTVYLQMNSLKPEDTAVYYCNADVYVGYDYDYWGQGTLVTVSS”, the “polyreactivity (PSR sort gate)” value is given as “low polyreactivity”.
For “QVQLVESGGGLVQAGGSLRLSCAASGITFPNYTMGWYRQAPWKERELLAAISYNGGGTYYADSVNGRFTISRYKAKNTVYVQKNSLKPEDTAVYYCAALGLYGDYLRYDYWGQGTQVSVSS” the value was “high polyreactivity”; for “QVQLVESGGGLVQAGGSLRLSCAASGITFPRYAMGWYRQAPGKERELVAAISKSGGRTYYADSVKGRFTISRDNAKNTVYLQMISLKPEDTAVYYCAADPLLGYLSHYYWGQGTQVTVSS”, “high polyreactivity”.
Consider “QVQLVESGGGLVQAGGSLRLSCAASGITFPRYAMGWYRQAPGKERELVATITRSGGGTYYADSVKGRFTISRDNAKNTVYLQMNSLKPEDTAVYYCAAGALQRGVYGYGYWGQGTQVTVSS”, for which the “polyreactivity (PSR sort gate)” value is listed as “high polyreactivity”.
Under “QVQLVESGGGLVQAGGSLRLSCAASGITFPSYVMGWYRQAPGKERELVAAISWRGGSTYYADSVKGRFTISRDNAKNTVYLQMNSLKPEDTAVYYCAAGSARDDDYWGQGTQVTVSS” stands “high polyreactivity”.
Turning to “QVQLVESGGGLVQAGGSLRLSCAASGITFPYYAMGWYREAPGKERELVAAITQSGGSTYYADSVKGRFTISRDNAKNTVYLQMNSLKPEDTAVYYCAADSSRSVNYYRYDYWGQGTQVTLSS”, the “polyreactivity (PSR sort gate)” value is listed as “low polyreactivity”.
Turning to “QVQLVESGGGLVQAGGSLRLSCAASGITFPYYAMGWYRQAPGKERELVAAISAGGTRTYYADSVKGRFTISRDNAKNNVYLQMNSLKPEDTAVYYCAARVWPIVQNYYWGQGTQVTVSS”, the “polyreactivity (PSR sort gate)” value was “high polyreactivity”.
Regarding “QVQLVESGGGLVQAGGSLRLSCAASGITFPYYAMGWYRQAPGKERELVAAITIRSGRTYYADSVKGRFTISRDNAMNTVYLQMNSLKPEDTAVYYCAARLSNTYGYWGQGTQVTVSS”, the “polyreactivity (PSR sort gate)” value is “high polyreactivity”.
As to “QVQLVESGGGLVQAGGSLRLSCAASGITFPYYAMGWYRQAPGKERELVASINRSGGTNYADSVKGRFTISRDNAKNTVYLPMNSLKPVDTAVYYCAAPGRYGEYDYWGQGTQVNVSS”, the “polyreactivity (PSR sort gate)” value is on record as “low polyreactivity”.
As for “QVQLVESGGGLVQAGGSLRLSCAASGITFPYYGMGWYRQAPGKERELVAAISRGGRTNYADSVKGRFTISRDNAKNTVYLQMNSLKPEDTAVYYCNTRTWSVFAKSDYWGQGTQVTVSS”, the “polyreactivity (PSR sort gate)” value was “high polyreactivity”.
For “QVQLVESGGGLVQAGGSLRLSCAASGITFQNYAMGWYRQAPGKEMELVAAITRSGGRTYYADSVKGRFTNSRDNANYTVYLQMNSLKQEDTAVYYCAVYGIGRPYWYDYWGQGTQVTVSS” the value was “high polyreactivity”; for “QVQLVESGGGLVQAGGSLRLSCAASGITFQNYAMGWYRQSPGKERELVAAITRSGGRTYYADSVKGRFTISRDNAKNTVYLQINSLKPEDTAVYYCAFYGIGRPYWYDYWGQGTQVTVSS”, “high polyreactivity”; for “QVQLVESGGGLVQAGGSLRLSCAASGITFQSNAMGWYRQAPGKERELVAAIDWRGDSTYYADSVKGRFTISRDNAKNTVYLQMNSLKPEDTAVYYCNADISGSGQWDGYDYWGQGTQVTVSS”, “low polyreactivity”.
Under “QVQLVESGGGLVQAGGSLRLSCAASGITFQWNALGWYRQAPGTERELVAAITRSGGRTYYADSVKGRFTISRDNAKNTVYLQMYSLKPEDTAVYYCAARYWDNPYWFDYWGQGTQVTVSS” stands “high polyreactivity”; under “QVQLVESGGGLVQAGGSLRLSCAASGITFQYYAMGWYRQAPGKERELVAAISSGGSTYYADSVKGRFTISRDNAKNTVYLQMNILKPEDTAVYYCAAKRVFFGLNYDYWGQGTQVTVSS”, “high polyreactivity”.
As for “QVQLVESGGGLVQAGGSLRLSCAASGITFQYYAMGWYRQAPGKERELVAAITSSGVSTYYADSVKGRFTISRDNAKNTVYLQMNSLKPEDTAVYYCNTVVRGWSSSAYDDWGQGTQVTVSS”, the “polyreactivity (PSR sort gate)” value is given as “low polyreactivity”.
For “QVQLVESGGGLVQAGGSLRLSCAASGITFQYYDMGWYRQAPGKEREFVAAISWRSGRTYYADSVKGRFTISRDNAKNTVYLQMNSLKPDDTAVYYCTAALYGVTTDMDYWGQGTQVTVSS” the value was “high polyreactivity”; for “QVQLVESGGGLVQAGGSLRLSCAASGITFRFNAMGWYRQAPGKEREFVAAITYSGDSTYYADSVKGRFTISRDNAKNTVYLQMNSLKPEDTAVYYCAADASSKLYDYWGQGTQVTVSS”, “low polyreactivity”.
Under “QVQLVESGGGLVQAGGSLRLSCAASGITFRFYAMGWYRQAPGKERELVAVISRGGGTTYYADSVKGRFTISRDNAKNTVYLQMNSLKPEDTAVYYCNAVIAWYRSDEYDYWGQGTQVTVSS” stands “high polyreactivity”; under “QVQLVESGGGLVQAGGSLRLSCAASGITFRGNAMGWYRQAPGKERELVATISSGGITNYADSVKGRFTISRDNAKNTVYLQMNSLKPEDTAVYSCAADLFVHKPRYQYSFDYWGQGTQVTVSS”, “low polyreactivity”; under “QVQLVESGGGLVQAGGSLRLSCAASGITFRHNTMGWYRQAPGKERELVSTNYADSVKGRFTISRDNAKNTVYLQMNSLKPEDTAVYYCNADGTFEYDYWGQGTQVTVSS”, “low polyreactivity”.
In the case of “QVQLVESGGGLVQAGGSLRLSCAASGITFRNYAMGWYRQAPGKERELVAAITTSGSRTYYADSVKGRFTISRDNAKNTVYLQMNSLKPEDTAVYYCAAEKAPWQYYDFEYWGQGTQVTVSS”, the “polyreactivity (PSR sort gate)” value is “high polyreactivity”.
Turning to “QVQLVESGGGLVQAGGSLRLSCAASGITFRNYARGWYRQAPGKERELVAAITTSGSRTYYEDSVKGRFTISRDNAKKTVYLQMNSLKPEDTAVYYCAAQQVPWQYYDFEYWGQGTQVTVSS”, the “polyreactivity (PSR sort gate)” value is recorded as “high polyreactivity”.
Under “QVQLVESGGGLVQAGGSLRLSCAASGITFRRNAMGWYRQAPGKERELVARITGSGGSTYYADSVKGRFTISRDNAKNTVYLQMNSLKPEATAVYYCATERYGKYAMDYWGQGTQVTVSS” stands “high polyreactivity”; under “QVQLVESGGGLVQAGGSLRLSCAASGITFRRYAMGWYRQAPGKERELVASITRGGSTSYADSVKGRFRFSRDNAKNTVYLQMNSLKPEDTAVYYCAADAFRGFYWGQGTQVTVSS”, “high polyreactivity”.
Turning to “QVQLVESGGGLVQAGGSLRLSCAASGITFRRYAMGWYRQAPGPEREFVATISGIGGNTYYADSVKGRFTISRANAKNPVYLQMNSLKPEDPAVYYCAADLWAGTYGEYDYWGQGPQVTVSS”, the “polyreactivity (PSR sort gate)” value is given as “high polyreactivity”.
For “QVQLVESGGGLVQAGGSLRLSCAASGITFRRYVMGWYRQAPGKERELVARISSDGSTSYADSVKGRFTISRNNAKNTVYLQMNSLKPEDTAVYYCAAVHQWYVRYSTGYNYWGQGTQVTVSS” the value was “high polyreactivity”.
With “QVQLVESGGGLVQAGGSLRLSCAASGITFRSYAMGWNIQAPGKERELVAAITTGTRTYYADSVKGRFTISRDNAKNTVFLQMKSLKPEDTAVYYCARDGVGRVYGYLTPLGYDYWGHGTQVTVSS”, the “polyreactivity (PSR sort gate)” value is reported as “low polyreactivity”.
For “QVQLVESGGGLVQAGGSLRLSCAASGITFRSYAMGWYRQAPGKERELVAAISSTGRTYYADSVKGRFTISRDNAKNTVYLQMNSLKPEDTAVYYCATGGQGAFWGQGTQVTVSS”, the “polyreactivity (PSR sort gate)” value was “high polyreactivity”.
Under “QVQLVESGGGLVQAGGSLRLSCAASGITFRSYAMGWYRQAPGKERELVAAITSGASTNYADSVKGRFTISRDNAKNTVYLQMNSLKPEDTAVYYCAATYHTWRGQYLWYDYWGQGTQVTVSS” stands “low polyreactivity”.
Take “QVQLVESGGGLVQAGGSLRLSCAASGITFRTNAMGWYRQAPGKERELVAVISSTGGRTYYADSVKGRFTISRDNAKNTVYLQMNSLNPEDTAVYYCAARAKYRFGYDYWGQGTQVTVSS”: the “polyreactivity (PSR sort gate)” value is on record as “high polyreactivity”.
Under “QVQLVESGGGLVQAGGSLRLSCAASGITFRTNTMGWYRQAPGKERELVAAITRSGVTTYYADSVKGRFTISRDNAKNTVYLQMNSLKPEDTAVYYCAARSTKYLYGYWGQGTQVTVSS” stands “high polyreactivity”.
